The supplement of paper PMC11246515
± gives the standard deviation of the averaged measurements.

Test: total protein half-life in vivo (active degradation + dilution); higher = more stable protein
[1] = E. coli NCM3722 delta-clpP, growth: N-lim chemostat, doubling time 6 h
[2] = E. coli NCM3722 delta-hslV, growth: N-lim chemostat, doubling time 6 h
[3] = E. coli NCM3722 delta-lon, growth: N-lim chemostat, doubling time 6 h
[4] = E. coli NCM3722 delta-smpB, growth: N-lim chemostat, doubling time 6 h
[5] = wild type E. coli NCM3722, growth: C-lim chemostat, doubling time 3 h
[6] = wild type E. coli NCM3722, growth: C-lim chemostat, doubling time 6 h
[7] = wild type E. coli NCM3722, growth: C-lim chemostat, doubling time 12 h
[8] = wild type E. coli NCM3722, growth: N-lim chemostat, doubling time 6 h
[9] = wild type E. coli NCM3722, growth: N-lim chemostat, doubling time 12 h
[10] = wild type E. coli NCM3722, growth: P-lim chemostat, doubling time 6 h
[11] = E. coli NCM3722 delta-clpP delta-lon delta-hslV, growth: N-lim chemostat, doubling time 6 h
[12] = wild type E. coli NCM3722, growth: P-lim chemostat, doubling time 12 h

Sequence | total protein half-life in vivo [1] | total protein half-life in vivo [2] | total protein half-life in vivo [3] | total protein half-life in vivo [4] | total protein half-life in vivo [5] | total protein half-life in vivo [6] | total protein half-life in vivo [7] | total protein half-life in vivo [8] | total protein half-life in vivo [9] | total protein half-life in vivo [10] | total protein half-life in vivo [11] | total protein half-life in vivo [12]
MGQVLPLVTRQGDRIAIVSGLRTPFARQATAFHGIPAVDLGKMVVGELLARSEIPAEVIEQLVFGQVVQMPEAPNIAREIVLGTGMNVHTDAYSVSRACATSFQAVANVAESLMAGTIRAGIAGGADSSSVLPIGVSKKLARVLVDVNKARTMSQRLKLFSRLRLRDLMPVPPAVAEYSTGLRMGDTAEQMAKTYGITREQQDALAHRSHQRAAQAWSDGKLKEEVMTAFIPPYKQPLVEDNNIRGNSSLADYAKLRPAFDRKHGTVTAANSTPLTDGAAAVILMTESRAKELGLVPLGYLRSYAFTAIDVWQDMLLGPAWSTPLALERAGLTMSDLTLIDMHEAFAAQTLANIQLLGSERFAREALGRAHATGEVDDSKFNVLGGSIAYGHPFAATGARMITQTLHELRRRGGGFGLVTACAAGGLGAAMVLEAE | 5.81 ± 0.29 h | 5.7 ± 0.78 h | 6.04 ± 0.061 h | 5.43 ± 0.24 h | 2.94 ± 0.14 h | 6.16 ± 0.1 h | 12.3 ± 1.9 h | 6.23 ± 0.13 h | 12 ± 0.41 h | 6.44 ± 0.075 h | – | –
MTTVYTLVSWLAILGYWLLIAGVTLRILMKRRAVPSAMAWLLIIYILPLVGIIAYLAVGELHLGKRRAERARAMWPSTAKWLNDLKACKHIFAEENSSVAAPLFKLCERRQGIAGVKGNQLQLMTESDDVMQALIRDIQLARHNIEMVFYIWQPGGMADQVAESLMAAARRGIHCRLMLDSAGSVAFFRSPWPELMRNAGIEVVEALKVNLMRVFLRRMDLRQHRKMIMIDNYIAYTGSMNMVDPRYFKQDAGVGQWIDLMARMEGPIATAMGIIYSCDWEIETGKRILPPPPDVNIMPFEQASGHTIHTIASGPGFPEDLIHQALLTAAYSAREYLIMTTPYFVPSDDLLHAICTAAQRGVDVSIILPRKNDSMLVGWASRAFFTELLAAGVKIYQFEGGLLHTKSVLVDGELSLVGTVNLDMRSLWLNFEITLAIDDKGFGADLAAVQDDYISRSRLLDARLWLKRPLWQRVAERLFYFFSPLL [P0A6H8] | – | 7.06 ± 0.36 h | 6.87 ± 0.85 h | 6.25 ± 0.099 h | 3.38 ± 0.26 h | 6.636 ± 0.027 h | 13.5 ± 0.82 h | 6.16 ± 0.22 h | 13.1 ± 1.4 h | 6.275 ± 0.026 h | 6.74 ± 0.71 h | 13.1 ± 0.13 h
MSTANQKPTESVSLNAFKQPKAFYLIFSIELWERFGYYGLQGIMAVYLVKQLGMSEADSITLFSSFSALVYGLVAIGGWLGDKVLGTKRVIMLGAIVLAIGYALVAWSGHDAGIVYMGMAAIAVGNGLFKANPSSLLSTCYEKNDPRLDGAFTMYYMSVNIGSFFSMIATPWLAAKYGWSVAFALSVVGLLITIVNFAFCQRWVKQYGSKPDFEPINYRNLLLTIIGVVALIAIATWLLHNQEVARMALGVVAFGIVVIFGKEAFAMKGAARRKMIVAFILMLEAIIFFVLYSQMPTSLNFFAIRNVEHSILGLAVEPEQYQALNPFWIIIGSPILAAIYNKMGDTLPMPTKFAIGMVMCSGAFLILPLGAKFASDAGIVSVSWLVASYGLQSIGELMISGLGLAMVAQLVPQRLMGFIMGSWFLTTAGANLIGGYVAGMMAVPDNVTDPLMSLEVYGRVFLQIGVATAVIAVLMLLTAPKLHRMTQDDAADKAAKAAVA | – | – | – | – | – | – | – | – | 4.49 h | – | – | –
MSTPRQILAAIFDMDGLLIDSEPLWDRAELDVMASLGVDISRRNELPDTLGLRIDMVVDLWYARQPWNGPSRQEVVERVIARAISLVEETRPLLPGVREAVALCKEQGLLVGLASASPLHMLEKVLTMFDLRDSFDALASAEKLPYSKPHPQVYLDCAAKLGVDPLTCVALEDSVNGMIASKAARMRSIVVPAPEAQNDPRFVLADVKLSSLTELTAKDLLG | 5.14 ± 0.84 h | 4.544 ± 0.045 h | 5.444 ± 0.011 h | 4.27 ± 0.18 h | 2.99 ± 0.3 h | 5.48 ± 0.35 h | 12.1 ± 3 h | 4.47 ± 0.14 h | 8.91 ± 1.3 h | 5.65 ± 0.52 h | 4.76 ± 0.9 h | 12.3 ± 0.28 h
MSASLAILTIGIVPMQEVLPLLTEYIDEDNISHHSLLGKLSREEVMAEYAPEAGEDTILTLLNDNQLAHVSRRKVERDLQGVVEVLDNQGYDVILLMSTANISSMTARNTIFLEPSRILPPLVSSIVEDHQVGVIVPVEEMLPVQAQKWQILQKSPVFSLGNPIHDSEQKIIDAGKELLAKGADVIMLDCLGFHQRHRDLLQKQLDVPVLLSNVLIARLAAELLV [P0AE28] | 2.28 h | – | – | 1.41 h | 2.32 ± 0.053 h | 3.15 ± 0.55 h | 3.7 h | 1.67 ± 0.018 h | – | – | 3.97 h | 7.89 h
MAYKHILIAVDLSPESKVLVEKAVSMARPYNAKVSLIHVDVNYSDLYTGLIDVNLGDMQKRISEETHHALTELSTNAGYPITETLSGSGDLGQVLVDAIKKYDMDLVVCGHHQDFWSKLMSSARQLINTVHVDMLIVPLRDEEE [P0AED0] | 4.94 ± 0.073 h | 4.31 ± 0.27 h | 4.3 ± 0.64 h | 4.52 ± 0.15 h | 3.34 ± 0.46 h | 5.16 ± 0.1 h | 10.7 ± 1.6 h | 4.305 ± 0.0018 h | – | 5.92 ± 0.084 h | 3.96 h | 9.86 ± 1.9 h
MSFLLPIQLFKILADETRLGIVLLLSELGELCVCDLCTALDQSQPKISRHLALLRESGLLLDRKQGKWVHYRLSPHIPAWAAKIIDEAWRCEQEKVQAIVRNLARQNCSGDSKNICS | 5.66 h | – | 5.43 h | 5.01 ± 0.46 h | 2.68 h | – | – | 4.89 h | 9.59 h | 5.5 h | 6.03 h | 9.37 h
MNNIAPQSPVMRRLTLQDNPAIARVIRQVSAEYGLTADKGYTVADPNLDELYQVYSQPGHAYWVVEYEGEVVGGGGIAPLTGSESDICELQKMYFLPAIRGKGLAKKLALMAMEQAREMGFKRCYLETTAFLKEAIALYEHLGFEHIDYALGCTGHVDCEVRMLREL | 3.93 ± 0.64 h | 3.54 ± 0.28 h | 3.77 ± 0.61 h | 3.89 ± 0.23 h | 2.95 ± 0.76 h | 5.11 ± 0.59 h | 6.43 ± 0.74 h | 4.37 ± 0.26 h | 7.32 ± 0.57 h | 5 ± 0.34 h | 4.53 ± 0.45 h | 10.6 ± 2.3 h
MSRSLLTNETSELDLLDQRPFDQTDFDILKSYEAVVDGLAMLIGSHCEIVLHSLQDLKCSAIRIANGEHTGRKIGSPITDLALRMLHDMTGADSSVSKCYFTRAKSGVLMKSLTIAIRNREQRVIGLLCINMNLDVPFSQIMSTFVPPETPDVGSSVNFASSVEDLVTQTLEFTIEEVNADRNVSNNAKNRQIVLNLYEKGIFDIKDAINQVADRLNISKHTVYLYIRQFKSGDFQGQDK | 4.65 ± 0.54 h | 3.52 ± 0.076 h | 3.21 ± 0.28 h | 3.38 ± 0.41 h | 2.482 ± 0.004 h | 4.69 ± 1.3 h | 6.93 ± 0.81 h | 3.36 ± 0.46 h | 4.95 ± 1.1 h | 3.94 ± 0.15 h | 6.19 ± 0.97 h | 6.94 ± 0.43 h
MSVENIVNINESNLQQVLEQSMTTPVLFYFWSERSQHCLQLTPILESLAAQYNGQFILAKLDCDAEQMIAAQFGLRAIPTVYLFQNGQPVDGFQGPQPEEAIRALLDKVLPREEELKAQQAMQLMQESNYTDALPLLKDAWQLSNQNGEIGLLLAETLIALNRSEDAEAVLKTIPLQDQDTRYQGLVAQIELLKQAADTPEIQQLQQQVAENPEDAALATQLALQLHQVGRNEEALELLFGHLRKDLTAADGQTRKTFQEILAALGTGDALASKYRRQLYALLY | 4.61 ± 0.092 h | 5.26 ± 0.61 h | 6.044 ± 0.054 h | 4.75 ± 0.35 h | 3.1 ± 0.24 h | 6.038 ± 0.01 h | 11 ± 0.52 h | 5.25 ± 0.16 h | 8.64 ± 0.25 h | 5.31 ± 0.12 h | 4.51 ± 0.3 h | 11.9 ± 0.69 h
MQAYFDQLDRVRYEGSKSSNPLAFRHYNPDELVLGKRMEEHLRFAACYWHTFCWNGADMFGVGAFNRPWQQPGEALALAKRKADVAFEFFHKLHVPFYCFHDVDVSPEGASLKEYINNFAQMVDVLAGKQEESGVKLLWGTANCFTNPRYGAGAATNPDPEVFSWAATQVVTAMEATHKLGGENYVLWGGREGYETLLNTDLRQEREQLGRFMQMVVEHKHKIGFQGTLLIEPKPQEPTKHQYDYDAATVYGFLKQFGLEKEIKLNIEANHATLAGHSFHHEIATAIALGLFGSVDANRGDAQLGWDTDQFPNSVEENALVMYEILKAGGFTTGGLNFDAKVRRQSTDKYDLFYGHIGAMDTMALALKIAARMIEDGELDKRIAQRYSGWNSELGQQILKGQMSLADLAKYAQEHHLSPVHQSGRQEQLENLVNHYLFDK | – | 2.75 h | – | – | 2.93 ± 0.26 h | 4.84 ± 0.15 h | 8.63 ± 0.81 h | 3.53 h | – | 5.81 ± 0.47 h | 4.53 ± 0.48 h | 11.6 ± 0.51 h
MDRFPRSDSIVQPRAGLQTYMAQVYGWMTVGLLLTAFVAWYAANSAAVMELLFTNRVFLIGLIIAQLALVIVLSAMIQKLSAGVTTMLFMLYSALTGLTLSSIFIVYTAASIASTFVVTAGMFGAMSLYGYTTKRDLSGFGNMLFMALIGIVLASLVNFWLKSEALMWAVTYIGVIVFVGLTAYDTQKLKNMGEQIDTRDTSNLRKYSILGALTLYLDFINLFLMLLRIFGNRR [P0AAC4] | 3.08 h | – | 2.51 h | 2.75 h | 2.15 ± 0.5 h | 2.98 h | 6.02 h | 3.09 h | 5.33 h | 3.85 ± 0.28 h | – | 6.88 ± 0.24 h
MILSAFSLEGKVAVVTGCDTGLGQGMALGLAQAGCDIVGINIVEPTETIEQVTALGRRFLSLTADLRKIDGIPALLDRAVAEFGHIDILVNNAGLIRREDALEFSEKDWDDVMNLNIKSVFFMSQAAAKHFIAQGNGGKIINIASMLSFQGGIRVPSYTASKSGVMGVTRLMANEWAKHNINVNAIAPGYMATNNTQQLRADEQRSAEILDRIPAGRWGLPSDLMGPIVFLASSASDYVNGYTIAVDGGWLAR | 2.06 ± 0.13 h | 2.8 ± 0.69 h | 2.48 ± 0.36 h | 2.31 ± 0.11 h | 2.75 ± 0.077 h | 4.15 ± 0.16 h | 7.26 ± 0.34 h | 2.385 ± 0.018 h | 3.87 ± 0.81 h | 5.03 ± 0.081 h | 3.57 ± 0.82 h | 10.5 ± 0.36 h
